The text below walks through data of the Immune Epitope Database (IEDB).

Assay [1] addresses HLA-B*44:02. Nature of the assay: IEDB peptide-MHC binding, purified MHC/direct/fluorescence; filed as Kd, often an IC50 or EC50 that approximates it; ≥ and ≤ were set here for values at or beyond the usual limits of such assays. As to conditions: source organism: Dengue virus 1 Singapore/S275/1990.
Assay [2] concerns the target HLA-B*18:01. Described as above.
For assay [3], the target named is HLA-B*44:03. Nature of the assay: IEDB peptide-MHC binding, purified MHC/competitive/radioactivity; filed as Kd, often an IC50 or EC50 that approximates it; ≥ and ≤ were set here for values at or beyond the usual limits of such assays. As to conditions: source organism: Dengue virus 1 Brazil/97-11/1997.
The target of assay [4] is HLA-A*68:02. The description is as above.
For assay [5], the target named is HLA-A*02:03. The assay is described as above. The settings on record: source organism: Lassa virus Josiah.
In assay [6] the target is HLA-A*02:02. The assay is described as above. As to conditions: source organism: Lassa virus Josiah.
The target in assay [7] is HLA-A*02:06. Described as above.
Assay [8] has as its target HLA-A*24:02. Briefly: IEDB peptide-MHC binding, purified MHC/competitive/fluorescence; ≥ and ≤ were set here for values at or beyond the usual limits of such assays.
The target of assay [9] is HLA-B*08:01. Briefly: IEDB peptide-MHC binding, purified MHC/direct/fluorescence; filed as Kd, often an IC50 or EC50 that approximates it; ≥ and ≤ were set here for values at or beyond the usual limits of such assays. The settings on record: source organism: SARS-CoV1.
Assay [10] has as its target HLA-B*27:05. The description is as above. As to conditions: source organism: SARS-CoV1.
The target in assay [11] is HLA-A*11:01. The assay is described as above. The settings on record: source organism: SARS-CoV1.
Assay [12] deals with HLA-B*51:01. Briefly: IEDB peptide-MHC binding, purified MHC/competitive/radioactivity; filed as Kd, often an IC50 or EC50 that approximates it; ≥ and ≤ were set here for values at or beyond the usual limits of such assays.
In assay [13] the target is HLA-A*31:01. Briefly: IEDB peptide-MHC binding, purified MHC/direct/fluorescence; filed as Kd, often an IC50 or EC50 that approximates it; ≥ and ≤ were set here for values at or beyond the usual limits of such assays. As to conditions: source organism: SARS-CoV1.
The target of assay [14] is HLA-A*02:01. The description is as above. The settings on record: source organism: SARS-CoV1.
Assay [15] has as its target HLA-B*15:01. The assay is described as above. The settings on record: source organism: SARS-CoV1.
Assay [16] deals with HLA-B*08:01. Nature of the assay: IEDB peptide-MHC binding, purified MHC/competitive/radioactivity; filed as Kd, often an IC50 or EC50 that approximates it; ≥ and ≤ were set here for values at or beyond the usual limits of such assays. As to conditions: source organism: Dengue virus 2 Jamaica/1409/1983.
Assay [17] deals with HLA-A*26:01. Described as above.
Assay [18] deals with HLA-A*29:02. The description is as above.
In assay [19] the target is HLA-A*30:01. The description is as above.
In assay [20] the target is HLA-A*32:01. The description is as above.
The target in assay [21] is HLA-A*30:02. Described as above.
Assay [22] addresses HLA-A*01:01. Described as above.
Assay [23] deals with HLA-B*53:01. The assay is described as above.
[24] abbreviates: source organism: Lassa virus Josiah.
The mark [25] stands for this setting: source organism: Dengue virus 4 Philippines/H241/1956.
Setting [26] is: source organism: Dengue virus 3 Martinique/1243/1999.
Where [27] appears, read: source organism: Dengue virus 2 Jamaica/1409/1983.
Setting [28] is: source organism: West Nile virus.
The mark [29] stands for this setting: source organism: Mammarenavirus juninense.
Where [30] appears, read: source organism: Mammarenavirus guanaritoense.
Setting [31] is: source organism: Dengue virus 2 Peru/IQT2913/1996.

Consider LEFFLMVLL, for which the Kd (as a rule, a measure of binding affinity in units of concentration) in [1] was at least 20000 nM; in assay [2] (source organism: Dengue virus 1 Singapore/S275/1990), 189 nM; in assay [3], 15600 nM.

For ALMDCIMFDA, the Kd in assay [4] (setting [24]) was at least 5000 nM; in [5], 9.62 nM; in [6], 5.25 nM; in assay [7] (setting [24]), 33.6 nM.

On to VEAGLIDTY, for which the Kd in [2] (source organism: Vibrio vulnificus YJ016) is at least 20000 nM.

As for DTTIGEWAF, in assay [8] (source organism: Zaire ebolavirus), the half-inhibitory concentration (IC50) – broadly, the concentration that inhibits the measured activity by half – came out at 25500 nM.

For the sequence ELCAEAEEL, in [4] (source organism: Homo sapiens), the Kd was determined as 1060 nM.

For the sequence EHYVRITGL, the Kd in assay [9] is 3530 nM; in assay [10], at least 46900 nM; in assay [11], at least 24300 nM.

With LVMLLVHYA, in assay [4] (setting [25]), the Kd stood at 369 nM.

For LGLMALKLI, the dissociation constant (Kd) in assay [12] (setting [26]) worked out at 8370 nM.

As for DLKDQIAQL, the figures for the Kd in assay [4] (source organism: Homo sapiens) and in assay [7] (source organism: Homo sapiens) were 826 nM and at least 78700 nM, respectively.

Regarding KLFIRQEEV, the Kd in assay [9] amounted to 2850 nM; in assay [13] it was 130 nM; in assay [14] it was 400 nM; in [15], 14900 nM.

With VAFLRFLTI, the values for the Kd in assay [12] (setting [27]) and in assay [16] were 1.89 nM and 10.4 nM, respectively.

MAVLFVVTLI: in [4] (setting [25]), the Kd was 533 nM.

In the case of NEVEVITKL, in [2] (setting [28]), the Kd worked out at 6.3 nM.

As to ETQGVTAEI, the figures for the equilibrium dissociation constant (Kd) in assay [4] (setting [26]) and in assay [17] (setting [26]) were 2.96 nM and 282 nM, respectively.

LYDVIPVTY: the Kd in assay [18] (setting [29]) is 375 nM; in assay [19] (setting [29]), at least 78100 nM; in assay [17] (setting [29]), at least 77900 nM; in assay [20] (setting [29]) it was at least 77800 nM; in assay [21] (setting [29]), 4200 nM; in assay [22] (setting [29]) it was 145 nM.

In turn, REDIWCGSL gave a Kd in assay [2] (setting [28]) of 7080 nM.

CTLEGVWAPF: the Kd in [18] (setting [30]) worked out at 957 nM; in assay [19] (setting [30]), 6960 nM; in assay [17] (setting [30]) it was 116 nM; in assay [20] (setting [30]) it was 44.2 nM; in [21] (setting [30]), 937 nM; in [22] (setting [30]), 1220 nM.

With WVMKIGIGV, the figures for the Kd in [4] (setting [26]) and in assay [7] (setting [26]) were 5.27 nM and 1.38 nM, respectively.

Regarding SPCKIPFEI, the Kd in assay [12] (setting [27]) is at least 47700 nM; in assay [23] (setting [27]), 1280 nM.

Turning to IPPTAGILA, the Kd in [12] (source organism: Dengue virus 1 Brazil/97-11/1997) turned out to be 5550 nM.

On to QPESNILDI, for which the Kd in [12] (setting [31]) was at least 46400 nM; in assay [23] (setting [31]) it was 1010 nM.

Sequence NADIGEWAF had an IC50 in assay [8] (source organism: Sudan ebolavirus) of 55500 nM. In other words, the double-digit micromolar range.

Consider IELEHLRGL, for which the equilibrium dissociation constant (Kd) in assay [2] (source organism: Giardia lamblia ATCC 50803) worked out at 10 nM.

In the case of YRSGTETKI, the concentration for half-maximal inhibition (IC50) in assay [8] (source organism: Vaccinia virus Copenhagen) is at least 315000 nM.
